Patent publication US20200031911A1 (MEDANNEX, published 2020)
Blank lines part the entries; values can stand above or below the binder they belong to.

Tests used:
[1] = molecular target: T1, human annexin A1 (Anx-A1) (human, UniProt P04083 2-346); test: Biacore SPR, assay 2 of 3; antibody captured via goat anti-mouse IgG, Anx-A1 at 5-80 nM as analyte, 1 mM CaCl2
T1 construct: also called full-length human Anx-A1 (ANXA1-002 / ANXA1-003 transcripts)
T1 sequence: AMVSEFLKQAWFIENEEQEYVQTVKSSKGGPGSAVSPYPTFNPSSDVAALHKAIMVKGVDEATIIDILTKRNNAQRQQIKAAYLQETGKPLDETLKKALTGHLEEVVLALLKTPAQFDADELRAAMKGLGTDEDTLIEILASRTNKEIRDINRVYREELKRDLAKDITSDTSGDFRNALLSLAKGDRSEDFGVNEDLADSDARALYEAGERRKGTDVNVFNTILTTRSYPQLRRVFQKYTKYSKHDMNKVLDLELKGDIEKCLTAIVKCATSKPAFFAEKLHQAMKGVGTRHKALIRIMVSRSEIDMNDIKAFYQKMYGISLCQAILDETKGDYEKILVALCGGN
Method: (§1) The Mdx001 antibody was immobilised on a chip via a goat anti-mouse IgG. Ligand (Anx-A1) was passed over the immobilised antibody in running buffer. Anx-A1 was used at a concentration of 5, 10, 20, 40 or 80 nM. In each experiment, a total of 150 μl Anx-A1-containing running buffer was passed over the antibody, at a flow rate of 30 μl/min.
(§2) Regeneration was performed using a regeneration buffer, 10 mM glycine-HCl, pH 2. To regenerate the chip, 70 μl regeneration buffer was passed over the chip at a rate of 10 μl/min.
(§3) Experiments were performed in triplicate.

[2] = molecular target: T1, human annexin A1 (Anx-A1); test: Biacore SPR, average of three assays; antibody captured, Anx-A1 as analyte
Method: as §1, §2, §3

[3] = molecular target: T1, human annexin A1 (Anx-A1); test: Biacore SPR, assay 1 of 3; antibody captured via goat anti-mouse IgG, Anx-A1 at 5-80 nM as analyte, 1 mM CaCl2
Method: as §1, §2, §3

[4] = molecular target: T1, human annexin A1 (Anx-A1); test: Biacore SPR, assay 3 of 3; antibody captured via goat anti-mouse IgG, Anx-A1 at 5-80 nM as analyte, 1 mM CaCl2
Method: as §1, §2, §3

[5] = molecular target: T1, human annexin A1 (Anx-A1); test: Biacore SPR, average of three assays, method of Example 4; average of the three experiments
Method: as §1
(§4) In light of the ELISA results, the LC1(mod 1)HC4 and LC2(mod 1)HC2 antibodies were discarded. […] Binding of LC1(mod 2)HC4 and LC2(mod 2)HC2 to Anx-A1 was quantified by Biacore, using the same method as described in Example 4. As in Example 4, the Biacore experiments were performed in triplicate. […] LC1(mod 2)HC4 was given the name MDX-L1M2H4. […] LC2(mod 2)HC2 was given the name MDX-L2M2H2.

[6] = molecular target: T1, human annexin A1 (Anx-A1); test: Biacore SPR, assay 1 of 3, method of Example 4; first of three experiments
Method: as §1, §4

[7] = molecular target: T1, human annexin A1 (Anx-A1); test: Biacore SPR, assay 3 of 3, method of Example 4; third of three experiments
Method: as §1, §4

[8] = molecular target: T1, human annexin A1 (Anx-A1); test: Biacore SPR, assay 2 of 3, method of Example 4; second of three experiments
Method: as §1, §4

Kd [1]: 9.58 nM
Kd [2]: 8.49 nM
Kd [3]: 9.43 nM
Kd [4]: 6.46 nM
B1: Mdx001 (antibody, mouse IgG2b, kappa, V domains shown)
VH: QVQLQQSGPELVRPGTSVKMSCKASGYTFTNYWIGWAKQRPGHGLEWIGDIYPGGDYTNYNEKFKGKATLTADKSSSTAYMQFSSLTSEDSAIYYCARWGLGYYFDYWGQGITLTVSS
VL: DAVMTQTPLSLPVSLGDQVSISCRSSQSLENSNGKTYLNWYLQKPGQSPQLLIYGVSNRFSGVLDRFSGSGSGTDFTLKISRVEAEDLGVYFCLQVTHVPYTFGGGTKLEIKR
notes: also called murine anti-Anx-A1 antibody

Kd [5]: 4.66 nM
Kd [6]: 4.44 nM
Kd [7]: 5.17 nM
Kd [8]: 4.37 nM
B2: MDX-L2M2H2 (antibody, human IgG1, kappa, V domains shown)
VH: QVQLVQSGPEVKKPGESLKISCKGSGYTFTNYWIGWVRQAPGKGLEWMGDIYPGGDYTNYNEKFKGQVTISADKSISTAYLQWSSLKASDTAIYYCARWGLGYYFDYWGRGTLVTVSS
VL: DIVMTQTPLSLSVTPGQPASISCRSSQSLENSNAKTYLNWYLQKPGQSPQLLIYGVSNRFSGVPDRFSGSGSGTDFTLKISRVEAEDVGVYYCLQVTHVPYTFGQGTKVEIKR
notes: also called LC2(mod 2)HC2; variant 1 of MDX-L2H2
